Data published in the nanobody polyreactivity screen of Harvey et al. (2022).

Assay: yeast display, Sf9 membrane polyspecificity reagent, FACS + sequencing; frameworks hold sequencing errors
How it was run: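 A nanobody's polyreactivity label depends on the gate it was sorted from. Yeast display cells were stained with 10% biotinylated, detergent-solubilized Sf9 membrane reagent for 1 hour at 4 °C, enriched on streptavidin microbeads and sorted by FACS. The low and high (top ~1%) gates were set on anti-HA fluorescence for expression and streptavidin fluorescence for reagent binding.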

Sequence	polyreactivity (PSR sort gate)
QVQLVESGGGLVQAGGSLRLSCAASGSIFDDYAMGWYRQAPGKERELVAAISSSGTSTYYADSVKGRFTISRDNAKNTVYLQMNSLKPEDTAVYYCAARSAILKSGYLMDYWGQGTQVTVSS	low polyreactivity
QVQLVESGGGLVQAGGSLRLSCAASGRTFTGYAMGWYRQAPGKERELVAAITSNGARTYYADSVKGRFTISRDNAKNTVYLQMNSLKPEDTAVYYCNRVRVYTHTAWGDDYWGQGTQVTVSS	low polyreactivity
QVQLVESGGGLVQAGGSLRLSCAASGRIVVGYAMGWYRQAPGKERELVAAINRSGSSTYYADSVKGRFTISRDNAKNTVYLQMNSLKPEDTAVYYCNARSGNRYGPRYDYWGQGTQVTVSS	high polyreactivity
QVQLVESGGGLVQAGGSLRLSCAASGSNFYQYAMGWYRPAPRKERELVAAISVRAGITYYADSVTGRFTISRDNAKYTVYLQMNSLKPEDTAVYYCAKDHWTTSYDEGDYWGQGTQVTVSS	low polyreactivity
QVQLVESGGGLVQAGGSLRLSCAASGSIFEPNAMGWYRQAPGKERELVAAISSGGSTYYADSVKGRFTISRDNAKNTVYLQMNSLKPEDTAVYYCAAYYHGYYSWGQGTQVTVSS	high polyreactivity
QVQLVESGGGLVQAGGSLRLSCAASGRIFYQNAMGWSRPAPGKERELVAGITRGGSTYYADSVKGRFTISRDNAKNTVYLQMNSLKPEDTAVYYCAVAFWRTKWYDYWGQGTQVTVSS	low polyreactivity
QVQLVESGVGLLQAGGSLSLSCSASGSTLYYAMGWYRQAPGKERELVASITFSTGSTYYADSVKGRFTISRDNAKNTVYLQMNSLKPEDTAVYYCATGVDTYYLTVEHDSWGQGTQVTVSS	low polyreactivity
PVQLVESGGGLVQAGGSLRLSCAASGFTFSYNDMGWYRQAPGKERELVAAITSTGGTYYADSVKGRFTISRDNAKNTVYLQMNSLKPEDTAVYYCAADRIGGPGSYLYDYWGQGTQVTVSS	low polyreactivity
QVQLVESGGGLVQAGGSLRLSCAASGRTFGRYAMVWYRQAPGKEREFVASISRRGGTTYYADSVKGRFTISRDNAKNSVYLQMNSLKPEDTAVYYCNADRTVIYDYEYWGQGTQVTVSS	low polyreactivity
QVQLVESGGGLVQAGASLRLSCAASGSIFYHNTMGWYRQAPGKERELITYYADSVKRRFTISRDNAKNTVYLQMNSLKPEDTAVYYCAASPVYRTGPGDYDYWGQGTQVTVSS	low polyreactivity
QVQLVESGGGLVQAGGSLRLSCAPSGRTFNDYAMGWYRQAPGKESELVAAIDSDGDTNYADSVKGRFTISRDNAKNTVYLQMNSLKPEDTAVYYCNAVRLVVQEWYYYFTFDYWGQGTQVTVSS	low polyreactivity
QVQRVESGGGLVQAGCSLLLSCASSGNIFTRNAMGGYRHAPGKEREWVAAISTSGGRTYYADSVKGRFTISRDNAKNTVYLQMYSLKPEDTAVYYCAADYLSGTELYYWGQGTQVTVSS	high polyreactivity
QVQLVESGGGLVQAGGSLRLSCAASGNIFSIYAMGWYRQAPGKERELVARITRVGSTYADSVKGRFTISRDNAKNTVYLQMNSLNPEDTAVYYCAADKNTPHASLDDFNDYDYWGQGTQVTVSS	high polyreactivity
QVQLVESGGGLVQAGGSLRLSCAASGGTFDNYAMGWYRQAPGKERELVAAISWSGDNTYYADSVKGRFTISRDNAKNTVYLQMNSLKPEDTAVYYCAAVYFWYSYDEGYTAYDYWGQGTQVTVSS	low polyreactivity
QVQLEESRGGLVHAGGSLRLSCAASGYSFYIYAMGWYRQAPGKERELVAAISSSGGRTYYADSVKGRFTISRDNAKNTVYLQMNSLKPEDTAVYYCNALYRYGWLYAPKYNSCGQGTQVTVSS	high polyreactivity
QVQLVESGGGIVQAGGSLRLSCAASGFIFAGNAMGWSSQAPGKERELVAAITRRGGSTHYADSVKGRFTISRDKAKYTVYLQMNSLKPEDTAVYYCNAAVQPPWSDYWGQGTQVTVSS	low polyreactivity

Sequence	polyreactivity (PSR sort gate)
QVQLVESGGGLVQAGGSIRLSCAASGITFYVYTLGWYRQAAGKERELVAAINGSGGSTNYADSVKGRFTITRDNEKNTVYLQMNSLKREDTAVYYCNAPVVYFWPLNFDYWGQGTQVTVSS	low polyreactivity
QVQLVESGGGLVQAGGSLRLSCAASGFTFPRYAMGWYRQAPGKERELVAVITRRGGSTYYADSVKGRFTISRDNAKNTVYLQMNSLKPEDTAVYYCAARQYSYNGGYGYWGQGTQVTVSS	high polyreactivity
QVQLVESGGGLVQAGGSLRLSCAASGTFPGNAMGWYRQSPGKERELVATITRGGRTYYADSVKGRFTISRDNAKHTVYLQMNSLKPEDTAVYYCNTRVYFGKIRGYDYWGQGTQVTVSS	high polyreactivity
QVQLVESGGGLVQAGGSLRLSCAASGSIFLYNAMRWYRQAPGKERELVAAKSYSGASTYYADSVKGRFTISRDNAKNTVYLQMNSLKAEDTAVYYCAKTFRYKWPYGTPKYDYWGQGTQVTVSS	high polyreactivity
QVQLVESGGGLVQAGGSLRLSCAASGFTFYANAKGWYRQAPGKERELVAAIDQSGTSTNYADSVKGRFTISRDNAKNTVYLQMNSLKPDDTAVYYCAADSSFYYYPLILFWGDYWGQGTQVTVSS	low polyreactivity
QVQLVESGGGLVQAGGSLRLSCAASGIIFRLNTMGWYRQAPGKEREFVAAITSGGSTHYADSVKGRFTISRDNAKNTVYLQMNSLKPEDTAVYYCAAGHRANYWAWHFYYPGDYWGQGTQVTVSS	low polyreactivity
QVQLVESGGGLVQAGGSLRLSCAASGRTFYTYAMGWYRQAPGKERELVATITSGGSTYYGDSVKGRFTISRDNAKNTVYLQMNSLKPEDTAVYYCDVEVFVDYDYWGQGTQVTVSS	high polyreactivity
QVQLVESGGGLVQAGGSLRLSCAASGSIFHSNAMGWYRQAPGKERELVAAISASGGSTYYADSVKGRFTISRDNAKNTVYLQMNSLKPEDTAVYYCNAVSRYYRFSPYYYWGQGTQVTVSS	high polyreactivity
QVQLVESGGGLVQAGGSLRLTCAASGSIFRDNVMGWSRQAPGKERELVAAISKRGGSTYYADSVKGRFTISRDNAKNTVYLQMNSLKPEDTAVYYCAAPQGRSHYYRYDYWGQGTQVTVSS	high polyreactivity
QVQLVESGGGLVQAGGSLRLSCAASGFIFGTYAMGWYIQAPGKERELVAAISTGATYYADSVKGRFTISRDNAKNTVYLQMNSLKPEDTAVYYCAAPRTYYLRYRWYLYEGDYWGQGTQVTVTS	low polyreactivity
QVQLVESGVGLVQAGGSLRLSCAASGITFVGYAMGWSRQAPGKERELVASITRGGGSTYYADSVKGRFTISRDNAKNTVYLQMNSLKPEDTAVYYCAARSHSTYYYWGQGTQVTVSS	high polyreactivity
QVQLVESGGGLVQAGGSLRLSCDASGLNMYKNGMGWYRQAPGKERELVAVISRSGCRTYYADSVKGRFTISRDTAKNTVYVQMNSLKPEDTAVYYCAARQYGPRYTYYYWGQGTQVTVSS	high polyreactivity
QVQLVESGGGLVQAGGSLRLSCAASGFTFQYNAMGWYRQAPGKERELVAAITWTGTSTYAYSVKGRFTISRDNAKNTVYLQLNSVKPDDTGVYYCAARYYAPRWFRYDYWGQGTQVTVSS	low polyreactivity
QVQLVESGGGLVQAGGSLRLSCAASGRIFVYNAKGWNRQAPGKERQLVAAISYNGGGTYYADSVKGRFTISRDNAKNTVYLQMNSLKPEDTAVYYCAARYRSWTGKYEYWGQGTQVTVSS	high polyreactivity
HVQLVESGGGLVQAGGILRLSCAASGRIFPGYTMGWYRQGPGKERELVARISFSDGSTYYADSVNGRFTISRDNAKNTVYFQMNSRKPEDTAVYYCNAATYRNRHSNNGYWGQGTQVTVSS	low polyreactivity
QVQLVESGGGLVQAGGSLRLSSAASGITFYLYAMGWYRQAPGKERELVAGISSGGSTNYADSVKGRFTISRDNAKNTVYLQMNSLKPEDTAVYYCAAKLRGYRYGYWGHGTQVTVSS	high polyreactivity
